Where no end group is shown, it is not given here. [ ]: non-standard residue; d: D form. Pra = C#CC[C@H](N)C(=O)O
How the values were obtained:
Assay type in all cases: cell-based
[1] = target: T1, hPD-L1 expressed on the surface of Chinese hamster ovary (CHO) cells (CHO-hPD-L1) (Homo sapiens, UniProt Q9NZQ7); assay: Antibody competition by flow cytometry on CHO-hPD-L1 cells; details: pre-incubation 30 min 4° C., 0-20 μM; SPAM effect at 20 μM; 1 nM Atezolizumab, 10 nM Avelumab
T1 construct: expressed in transfected cells; host or cells: CHO
From the text: (§1) To do this, we measured SPAM peptide inhibition of anti-PD-L1 antibody binding to hPD-L1 expressed on the surface of Chinese hamster ovary (CHO) cells (CHO-hPD-L1). […] Cells were washed again and analyzed by flow cytometry (FIG. 5B-C).
Cells were then washed three times with cold serum free DMEM. Cells were subsequently processed by flow cytometry with a BD FACSCalibur system using the FL1 channel. FlowJo v10.1 was used to gate to the major population and median FL1 fluorescence reported.

[2] = target: T2, CHO-mPD-L1 cells which express mPD-L1 (Mus musculus, UniProt Q9EP73); assay: Antibody competition by flow cytometry on CHO-mPD-L1 cells; details: pre-treatment 0-20 μM, 50 nM antibody
T2 construct: expressed in transfected cells; host or cells: CHO
Procedure: We performed similar experiments with CHO-mPD-L1 cells which express mPD-L1 to determine if this effect was specific to hPD-L1 expression. We have developed two cross-reactive anti-hPD-L1/mPD-L1 antibodies, 16373 and 16377. These antibodies were labeled with Fluorescein, titrated against CHO-hPD-L1 and CHO-mPD-L1 cells (FIG. 12B-C) and subjected to competition experiments as described above.
The cells were washed once with cold serum free DMEM and incubated with 1 nM FAM-Atezolizumab, 10 nM FAM-Avelumab, 50 nM FAM-16373, or 50 nM FAM-16377 in serum free DMEM at 4° C. for 30 min. Cells were then washed three times with cold serum free DMEM. Cells were subsequently processed by flow cytometry with a BD FACSCalibur system using the FL1 channel. FlowJo v10.1 was used to gate to the major population and median FL1 fluorescence reported.

[3] = target: T1, hPD-L1 expressed on the surface of Chinese hamster ovary (CHO) cells (CHO-hPD-L1); assay: Antibody titration by flow cytometry on CHO-hPD-L1 cells; details: 4° C., read-out: KD of Fluorescein-labeled antibody on CHO-hPD-L1
From the text: as §1

T1 sequence (Q9NZQ7 19-290): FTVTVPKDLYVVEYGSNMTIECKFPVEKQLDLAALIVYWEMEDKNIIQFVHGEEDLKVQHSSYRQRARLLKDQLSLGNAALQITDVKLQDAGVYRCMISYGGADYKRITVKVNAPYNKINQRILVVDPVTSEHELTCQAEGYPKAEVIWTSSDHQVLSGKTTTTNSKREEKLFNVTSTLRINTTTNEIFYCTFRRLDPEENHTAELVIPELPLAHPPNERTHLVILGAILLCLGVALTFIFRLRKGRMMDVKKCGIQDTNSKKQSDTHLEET
T2 sequence (Q9EP73 19-290): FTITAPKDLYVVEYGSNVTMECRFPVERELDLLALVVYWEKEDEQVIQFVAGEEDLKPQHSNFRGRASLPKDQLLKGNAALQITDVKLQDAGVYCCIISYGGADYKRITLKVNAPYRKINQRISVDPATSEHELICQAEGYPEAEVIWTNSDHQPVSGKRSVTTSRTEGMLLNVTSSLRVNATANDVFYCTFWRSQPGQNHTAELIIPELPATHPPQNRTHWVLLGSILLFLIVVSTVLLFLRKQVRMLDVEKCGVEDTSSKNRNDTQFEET

YKLNLIHPHIFLMDWIFASG-Pra (YKLNLIHPHIFLMDWIFASG[Pra]-NH2; N-terminus assumed; SMILES C#CC[C@H](NC(=O)CNC(=O)[C@H](CO)NC(=O)[C@H](C)NC(=O)[C@H](Cc1ccccc1)NC(=O)[C@@H](NC(=O)[C@H](Cc1c[nH]c2ccccc12)NC(=O)[C@H](CC(=O)O)NC(=O)[C@H](CCSC)NC(=O)[C@H](CC(C)C)NC(=O)[C@H](Cc1ccccc1)NC(=O)[C@@H](NC(=O)[C@H](Cc1c[nH]cn1)NC(=O)[C@@H]1CCCN1C(=O)[C@H](Cc1c[nH]cn1)NC(=O)[C@@H](NC(=O)[C@H](CC(C)C)NC(=O)[C@H](CC(N)=O)NC(=O)[C@H](CC(C)C)NC(=O)[C@H](CCCCN)NC(=O)[C@@H](N)Cc1ccc(O)cc1)[C@@H](C)CC)[C@@H](C)CC)[C@@H](C)CC)C(N)=O) [SPAM-scramble, control scrambled peptide, reference compound]
Fluorescein-Atezolizumab and Fluorescein-Avelumab binding to CHO-hPD-L1 after pre-incubation [1]: not observed

Cyclo[(AcTyr)(NMeAla)NPHL(Hyp)WS(Trp(Me))(NMeNle) (NMeNle)(Orn)C]-Gly-NH2 (XXNPHLXWSXXXXCG; N-methyl; non-natural residues; cyclised or stapled) [WL-12]
blocking of Fluorescein-16373 and Fluorescein-16377 in CHO-mPD-L1 cells [2]: blocking was absent

Atezolizumab: hPD-L1 specific monoclonal antibody
Kd [3]: 0.2 nM
